Legend:
[1] = target: T1, sclerostin (SOST), expressed from plasmid in MC3T3-E1 cells (UniProt Q9BQB4 SEQ:1-190); assay: cell_activity; TOP-Wnt luciferase reporter; stated as inhibition potency
sclerostin (SOST) [2] = target: T2, sclerostin (SOST) (Homo sapiens, UniProt Q9BQB4 SEQ:1-190); assay: ELONA; PBS, 1 mM MgCl2, RT; conditions: tags: His6 (stated for the SELEX protein); ELONA used purified recombinant human sclerostin
sclerostin (SOST) [3] = target: T2, sclerostin (SOST); assay: ELONA; PBS, 1 mM MgCl2, RT; conditions: tags: His6 (stated for the SELEX protein); ELONA used purified recombinant human sclerostin; remark: listed apart in the source
Experimental: (§1) An Enzyme-linked OligoNucleotide Assay (ELONA) was performed to determine the binding affinity of the aptamer candidates to sclerostin (Drolet, Moon-McDermott et al. 1996). Similarly, an Enzyme-linked ImmunoSorbent Assay (ELISA) was performed to determine the binding affinity of anti-sclerostin antibody to human sclerostin (Engvall and Perlmann 1971). 160 ng purified recombinant human sclerostin was coated to 96-well microtiter plate in 100 μl PBS by incubating at 4° C. overnight. The plate was then blocked with blocking buffer (PBS, 0.1% Tween 20 and 1% BSA) for 1 h at room temperature and washed with SELEX B&W buffer (PBS, 1 mM MgCl₂, 0.1% Tween 20 and 0.1% BSA) for 4 times. The aptamer candidates were denatured at 95° C. for 10 min and rapidly cooled on ice for 10 min before use. Appropriate concentrations of biotinylated aptamers/antibody were added into each well, then added SELEX B&W buffer to 100 μl and incubated for 45 min at room temperature with continuous gentle shaking. After binding, the plate was washed with SELEX B&W buffer for 4 times to remove non-specific and very weak binding, followed by washing with PBST+0.1% BSA for 4 times. 100 μl streptavidin-HRP/goat anti-human IgG Fc-HRP (1:10000 dilute into PBST+0.1% BSA) was added to each well and incubated for 30/60 min and washed with PBST+0.1% BSA for 4 times. 50 μl TMB was added to each well and incubated for 20 min. The reaction was stopped by adding 50 μl 2 M H₂SO₄. Absorbance at 450 nm was measured with microplate reader (Stoltenburg, Krafcikova et al. 2016). Data was analyzed with Origin software (OriginLab, Northampton, Mass.). A non-linear curve fitting model Hyperbl was used to plot is the binding curve. Equation of Hyperbl model is y=P1*x/(P2+x) and P2 is the Kd value.

[4] = target: T1, sclerostin (SOST), expressed from …; assay: cell_activity; TOP-Wnt luciferase reporter, MC3T3-E1
Experimental: (§2) MC3T3-E1 cells were seeded in 24-well plates and cells were transfected with corresponding reporter plasmid (100 ng), Wnt3a plasmid (800 ng) and sclerostin plasmid (800 ng) as necessary using FuGENE HD transfection reagent (Promega) in the following day. 10 hours after transfection, culture medium was changed to fresh medium and cells were treated with aptamers/antibody. 24 hours after treatment, each well of cells was lysed with 100 μl passive lysis buffer and 20 μl was taken for analysis. The Luciferase Assay Reagent II and Stop & Glo Reagent were prepared and added automatically by SpectraMax i3x Multi-Mode Detection Platform (Molecular Device) according to the manufacturer's protocol (Promega) and data was analyzed accordingly (Grentzmann, Ingram et al. 1998, McNabb, Reed et al. 2005).
The inhibition to sclerostin was dose dependent and the response was stable when the concentrations of aptscl 56 and 6 reached to 25 and 47.4 μg/ml, respectively. While treated with antibody, the response was still not stable with the concentration increasing to 20 mg/ml. Furthermore, the inhibition potency of aptscl 56, aptscl 6 and aptscl 3 was analyzed with non-linear curve fitting.

sclerostin (SOST) [5] = target: T2, sclerostin (SOST); assay: ELONA; PBS, 1 mM MgCl2, RT; Table 2 gives 0.02 nM; conditions: tags: His6 (stated for the SELEX protein); ELONA used purified recombinant human sclerostin
Experimental: as §1, with “100 μl streptavidin-HRP/goat anti-human IgG Fc-HRP (1:10000 dilute into PBST+0.1% BSA) was added to each well and incubated for 30/60 min and washed with PBST+0.1% BSA for 4 times. 50 μl TMB was added to each well and incubated for 20 min. The reaction was stopped by adding 50 μl 2 M H₂SO₄.” left out, “A non-linear curve fitting model Hyperbl was used to plot is the binding curve. Equation of Hyperbl model is y=P1*x/(P2+x) and P2 is the Kd value.” left out

sclerostin (SOST) [6] = target: T2, sclerostin (SOST); assay: ELONA; PBS, 1 mM MgCl2, RT; conditions: tags: His6 (stated for the SELEX protein); ELONA used purified recombinant human sclerostin; remark: listed apart in the source
Experimental: as §1
(§3) Binding affinity and in vitro inhibition potency were performed using the same protocols in previous studies.

sclerostin (SOST) [7] = target: T2, sclerostin (SOST); assay: ELONA; PBS, 1 mM MgCl2, 0.1% Tween 20, 0.1% BSA, RT; conditions: tags: His6 (stated for the SELEX protein); ELONA used purified recombinant human sclerostin
Experimental: as §1, with “100 μl streptavidin-HRP/goat anti-human IgG Fc-HRP (1:10000 dilute into PBST+0.1% BSA) was added to each well and incubated for 30/60 min and washed with PBST+0.1% BSA for 4 times. 50 μl TMB was added to each well and incubated for 20 min. The reaction was stopped by adding 50 μl 2 M H₂SO₄.” left out, “A non-linear curve fitting model Hyperbl was used to plot is the binding curve. Equation of Hyperbl model is y=P1*x/(P2+x) and P2 is the Kd value.” left out

[8] = target: T1, sclerostin (SOST), expressed from …; assay: cell_activity; TOP-Wnt luciferase reporter, MC3T3-E1; remark: listed apart in the source
Experimental: as §2, §3

T1 sequence (Q9BQB4 24-213): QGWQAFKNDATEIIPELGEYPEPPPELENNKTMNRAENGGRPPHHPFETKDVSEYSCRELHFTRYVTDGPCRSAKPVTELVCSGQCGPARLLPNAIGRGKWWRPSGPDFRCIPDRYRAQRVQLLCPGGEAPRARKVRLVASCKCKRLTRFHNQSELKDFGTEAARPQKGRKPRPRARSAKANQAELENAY
T2 sequence (Q9BQB4 24-213): as above

B1: modified aptscl 56 (ssDNA)
DNA: CGGGGTGTGGGTTCGTCGTTAGCTTGATTTGGCAGCTGCCC
modifications: 2'-OMe at first four (CGGG) and last four (GCCC) nucleotides; 3' idT
[1]
  EC50: 14 µg/mL
Sclerostin (SOST) [2]
  Kd: 6550 pM

B2: aptscl 132 (ssDNA)
DNA: CCCAGACGAGACACCTCATGCTTTTCCCCGGGGGAGGGGTAT
Sclerostin (SOST) [3]
  Kd: 42200 pM

B3: aptscl 8 (ssDNA)
DNA: CGTACGGTCGACGCTAGCCGGCGAAATTGCTACCACGTGGAGCTCGGATCC
Sclerostin (SOST) [3]
  Kd: 5 pM

B4: aptscl 32 (ssDNA)
DNA: CGTACGGTCGACGCTAGCTGTGTTAATCGCCGTACCTCCACGTGGAGCTCGGATCC
Sclerostin (SOST) [3]
  Kd: 180 pM

B5: aptscl 3 (ssDNA)
DNA: CGTACGGTCGACGCTAGCTGTTGTACATCGCCTTACGCACGTGGAGCTCGGATCC
[4]
  EC50: 18.2 µg/mL
Sclerostin (SOST) [5]
  Kd: 40 pM

B6: aptscl 2 (ssDNA)
DNA: CGTACGGTCGACGCTAGCCAGCCAAAGACAGAGATGCACGTGGAGCTCGGATCC
Sclerostin (SOST) [3]
  Kd: 6 pM

B7: aptscl 6 (ssDNA)
DNA: CGTACGGTCGACGCTAGCTGGAAGGGTGGGGGCGGGGGGTCCTCGCCTCGAACGTACGCACGTGGAGCTCGGATCC
[4]
  EC50: 36.8 µg/mL
Sclerostin (SOST) [3]
  Kd: 4200 pM

B8: aptscl 22 (ssDNA)
DNA: CGTACGGTCGACGCTAGCTGGGTTTATCGACTAGTTCCACGTGGAGCTCGGATCC
Sclerostin (SOST) [3]
  Kd: 760 pM

B9: aptscl 3-1 (ssDNA)
DNA: GTCGACGCTAGCTGTTGTACATCGCCTTACGCACGTGGAGCTCGGATCC
Sclerostin (SOST) [6]
  Kd: 860 pM

B10: aptscl 56 (ssDNA)
DNA: CGGGGTGTGGGTTCGTCGTTAGCTTGATTTGGCAGCTGCC
Sclerostin (SOST) [7]
  Kd: 43100 pM
[4]
  EC50: 19.7 µg/mL

B11: aptscl 3-5 (ssDNA)
DNA: GCTAGCTGTTGTACATCGCCTTACGCACGTG
[8]
  EC50: 28.4 µg/mL
Sclerostin (SOST) [6]
  Kd: 220 pM

B12: modified aptscl 3-5 (ssDNA)
DNA: GCTAGCTGTTGTACATCGCCTTACGCACGTG
modifications: 2'-OMe at first four (GCTA) and last four (CGTG) nucleotides; 3' idT
[1]
  EC50: 11 µg/mL
Sclerostin (SOST) [2]
  Kd: 540 pM

B13: aptscl 3-2 (ssDNA)
DNA: CGTACGGTCGACGCTAGCTGTTGTACATCGCCTTACGCACGTGGAGCTC
Sclerostin (SOST) [6]
  Kd: 520 pM

B14: aptscl 3-4 (ssDNA)
DNA: GTCGACGCTAGCTGTTGTACATCGCCTTACGCACGTG
Sclerostin (SOST) [6]
  Kd: 220 pM

B15: aptscl 3-3 (ssDNA)
DNA: GCTAGCTGTTGTACATCGCCTTACGCACGTGGAGCTC
Sclerostin (SOST) [6]
  Kd: 200 pM

B16: aptscl 51 (ssDNA)
DNA: CGTACGGTCGACGCTAGCTGGGGGTAGGGGGTCCTTGGCTACGGTGATTCGGATGTGACACGTGGAGCTCGGATCC
Sclerostin (SOST) [3]
  Kd: 62200 pM

B17: aptscl 29 (ssDNA)
DNA: CGTACGGTCGACGCTAGCCGGAGACCTGAGGTTCACGTGGAGCTCGGATCC
Sclerostin (SOST) [3]
  Kd: 280 pM

B18: aptscl 12 (ssDNA)
DNA: CGTACGGTCGACGCTAGCCGTTGACTCGTTGCTACACGTGGAGCTCGGATCC
Sclerostin (SOST) [3]
  Kd: 5 pM

B19: aptscl 5 (ssDNA)
DNA: CGTACGGTCGACGCTAGCTGTTGTTCATCGACTTGACGCACGTGGAGCTCGGATCC
Sclerostin (SOST) [3]
  Kd: 5 pM

B20: aptscl 1 (ssDNA)
DNA: CGTACGGTCGACGCTAGCTCTTGTTCATCGATCCTACGCACGTGGAGCTCGGATCC
Sclerostin (SOST) [3]
  Kd: 20 pM

B21: aptscl 9 (ssDNA)
DNA: CGTACGGTCGACGCTAGCTGGGGGTAGGGGGACCCTGGCTAGTTAGTCACCGTTTCGACACGTGGAGCTCGGATCC
Sclerostin (SOST) [3]
  Kd: 3400 pM

— US20210198672A1, “APTAMER FOR SCLEROSTIN AND USE THEREOF” (APTACURE THERAPEUTICS LIMITED, published 2021)
